The source of these data is US20040077845A1, “Modifier” (priority 2001, published 2004).

One series deals with T1, bovine serum albumin (Bos taurus, UniProt P02769).
T1 construct: purchased Sigma A0281
The series can be described thus: galactose content of the protein modified with agarooligosaccharides (hydrolysis, 2-aminopyridine labelling, HPLC). Type of series: biochemical. The settings on record: reacted with agarooligosaccharides in PBS pH 7.2, 37° C., 24 hours. How it is done: A solution containing the agarooligosaccharides as described in Example 1-(1) at a concentration of 100 mg/ml and a solution containing bovine serum albumin (Sigma, A0281) at a concentration of 11.1 mg/ml in PBS (pH 7.2) were mixed at a ratio of 1:9. The mixture was reacted at 37° C. for 24 hours to obtain a modification product of bovine serum albumin.
In order to confirm that the agarooligosaccharides were attached to the proteins, the modification products of the proteins were dialyzed to remove free agarooligosaccharides, and only high molecular weight fractions were collected by HPLC. HPLC was carried out as follows.
The protein concentrations in the separated fractions were determined by measuring the absorbances at 280 nm, and fractions containing the proteins were collected. As a control, unmodified counterparts for both of the proteins were also separated under the same conditions. Next, the galactose contents in the collected protein fractions were measured. […] The reducing ends of the resulting monosaccharides were fluorescence-labeled with 2-aminopyridine using GlycoTAG and GlycoTAG Reagent kit (both from Takara Shuzo). The sugar compositions were analyzed according to a conventional method by HPLC (Agric. Biol. Chem. 55, 283-284 (1991)) to determine the galactose contents in the respective protein fractions. […]

Series [1] in a line: solubility of lyophilized modification products in water or PBS. Type of series: physicochemical. The settings on record: dissolved in water or PBS. The source says:
The modification products of bovine serum albumin and human immunoglobulin G separated using HPLC as described in Example 2 were adequately dialyzed against water and lyophilized. The lyophilized modification products and lyophilized unmodified counterparts for both of the proteins were similarly dissolved in water or PBS.

T1 sequence (P02769 25-607): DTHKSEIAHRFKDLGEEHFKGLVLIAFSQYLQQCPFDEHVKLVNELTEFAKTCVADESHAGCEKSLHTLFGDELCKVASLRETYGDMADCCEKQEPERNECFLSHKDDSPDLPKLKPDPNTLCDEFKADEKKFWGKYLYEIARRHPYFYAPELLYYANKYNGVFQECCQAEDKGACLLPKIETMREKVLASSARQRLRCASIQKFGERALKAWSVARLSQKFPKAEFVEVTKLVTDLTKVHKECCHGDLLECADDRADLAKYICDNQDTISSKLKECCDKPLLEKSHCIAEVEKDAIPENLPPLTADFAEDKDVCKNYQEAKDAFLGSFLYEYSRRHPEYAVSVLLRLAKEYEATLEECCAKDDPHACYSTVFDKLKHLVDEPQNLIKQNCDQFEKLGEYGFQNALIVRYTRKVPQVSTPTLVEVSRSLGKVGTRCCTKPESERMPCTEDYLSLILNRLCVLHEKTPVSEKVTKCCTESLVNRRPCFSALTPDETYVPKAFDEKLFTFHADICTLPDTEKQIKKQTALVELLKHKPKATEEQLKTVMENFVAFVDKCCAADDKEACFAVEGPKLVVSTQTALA

Regarding “modification product of bovine serum albumin: bovine serum albumin reacted with the agarooligosaccharides in PBS at 37° C. for 24 hours”, the “molecules of galactose attached to one molecule of the modification product” value in the series with bovine serum albumin is listed as “eight”. In addition, the “solubility compared with unmodified counterparts” value in series [1] is recorded as “superior to that of the unmodified counterparts”.
